Measurements taken from the DeepSol protein solubility set.

test: soluble on expression in E. coli; label from the status in PepcDB or PDB records

Sequence | soluble on expression in E. coli
MNIAIGTTQDRALYEDALRVRRLVFIEEQNVPEDEEIDAFEDDSFHLVLYDGQTPVGAGRLRFIDEGVGKIERICVLPSYRGRGAGRMVMEAIEQLAKTKGAKTAKLNAQTHAEPFYQKLGYTTVSGVFMDAGIPHVTMVKSLE | soluble
MSLTDLNRTDLNRTDLNRTDLNRTDLNRTALPSRTDGTVEKTDTLVVGAGQAGVAMSEHLSRLGVPHLVLERNRIAEAWRSGRWDSLVANGPAWHDRFPGMEFDIDPDGFPGKDQVAAYFEAYAKKFDAPIRTGVEVRKVVRNVGRPGFTVETSAGTIEANRVVAATGPFQRPVIPPIAPRDERIRQIHSAHYYNPQQLPEGAVLVVGAGSSGVQIADELQRAGRQVYLSVGAHDRPPRSYRNRDFCWWLGVLGEWDAEVAKPGREHVTIAVSGARGGHTVDFRALAHQGVTLVGLTESFVDGVATFRPDLAENLARGDENYLALLDAADAYIARNGLDLPEEPEARRRLPDPQCVTDPILELDLAEAGVGSIIWATGYAVDFGWLQVDAFDRDGKPRHQRGVSSEPGVYFIGLPWLSRRGSSFIWGVWHDARHVADHIAIQRKYLAYRDAAQRQEQDRASQAPQTSLQEVSEGHHHHHH | soluble
MELVHEIAIDPNFQIPDKPTNAIQRCVQESMHKAYYNQLRRDLAKDPPELEYCFSFLMEVKTMILDDILTAQHTRLKAEINSMLDETALRGKLDQGQLDIKKVMKYIVDLCSRLCSPARDVKVAELRTRTDVIDIFEGTMDLLELMKNDLTNYQISQNRAAIEEYSSKHEYDMFQKFLIENPNGCYFARQWLKAAYDELFEKKLDAEGEETSVKKERKNEDTDTVLIDTTSRGYTKLIQVNEYDGFPETLKIDKIKIELLAEKFLQIVMCASSVFVTCNVAGKQISESADFKKTLKDHLIVITNNTDEERIKSDLEKIGEQCVKEAVDTSKKLNIEWNTESSTSIRNQINALISSDNPIRKLVHTRVSTFVEEMLRSPTSVPHRLLPGLSVIQSELCAFTSKFLRLCVHNRKTFYAMYSNLIQEFQGHTPSTHAIYRADSPSSMPGPSTSA | not soluble
MGSDKIHHHHHHMTKKVLILGAHGKIARLAEKEFLEKTDDSLKLFLRKASRLNPVQPDRETVIEGDATNLEQLVAAMQGVDAVYANLAGGDIKQQAQAVVKAMDKVGIKRLVWISTLGIYDEVPGKFGEWNNSTLGSYITNYRAAADVIEDSDLDYTIVRPAWLTNNDEVDFEVTQKGEVFKGTEVSRKSIAHIVVELIQNNTELKHSIGVNKPNTDGDKPSWY | not soluble
MSLGNPTSINPGGSSTTTGMAFNEENGFQVSDYAGQPEGPNLVYIEGGRTVLGSFEEDLMKNGDNVERTVTVASFYMDETEIANIHWLEYLFYVQRDSSQEFYESALPDTTVWASELAYNDPYVDHYFRYPGFRYFPVVGVNWIQANDYCIWRTTVVNNQLAQNAGIDVPEGGGRIPLESGVVLPNYRLPSEAEWEYAAQALIGNQWLDENQTHKRLYPWDGHALRNPYGKQMGMFLANFKRGRGDYAGIAGKLNDGAMITTYIYEFPPNDFGLYCMAGNVNEWVYDVYRPLSFQTFDDLNPLRRNGFLDEEKGYDKAGFQSLVDDHVRVYKGGSWKDVAYWMSPGTRRYLAEDSCTATIGFRCAMIQAGTEGHHHHHH | soluble
MGQIQYSEKYFDDTFEYRHVVLPPEVAKLLPKNRLLSENEWRAIGVQQSRGWVHYAVHRPEPHIMLFRRPLNYQQQQENQAQNMLVK | soluble
ILLPSKPRFIFQDVTVFNFNVSGNPSDLNTPVVQFNLSFRNPNANIRIYYDTLDVYAFYGNGSQQIIIPTPMPSTYQGHKEDSVWSPYIPVVPYNALYLDDQHHSRDGNMLMLHLDGRISWLLLGN | not soluble
MESSSTASQSGSRREATRQKLYEAAVTLIAEQGFSATTVDEIAERAGVAKGTVYYNFASKSVLFEELLRHGVGLLTASLRQAAERTAREGRGRVDALDAMIRAGLVFIDRYPAFTQLYVAELWRTNRAWQSTLLVVRQEAVAVVEGVLREGVASGEFSEDIDVPLTAAALVGMVLVAALDWKAFQPERSLDDVHAALSRLLQGRVSGRG | not soluble
QTSIPTIFVGGDYARAFSTDGFVHRLTAAHLMTKGLVVHVSHAGHVTVQQFGPLKNNPTIQVIFADNHHAKRQARQFATVMQGLAKRYHVTRYNAVGHSSGGNIIFDYLTAQVPQRAQINKFVTIGSTYPGLTTQQLNRLPRSLPILNIAGHVWHTSGDGGVNLQAVLKFSHQLLAAGWSPKTQIIHGSPLTASHSMLHINPQVDLLIIQFLYGN | not soluble
